Experimental data reported in PMC7442640, “The oligomeric assembly of galectin-11 is critical for anti-parasitic activity in sheep (Ovis aries)” (Communications Biology, 2020).
One block for each compound: values may come before it.

Tests used:
[1] = molecular target: T1, LGALS-11 isoform 1 (galectin-11) (Ovis aries, UniProt A0A0A7EMW6); assay: X-ray crystallography; assay type: binding; settings: 2.40 Å complex structure; carbohydrate recognition domain (R53, N64, E74 hydrogen bonds; V62, W71 contacts)
T1 construct: gene LGALS15; recombinant, modified pET-28, E. coli BL21(DE3); alignment over 137 residues; homotetramer; natural variant with L9 and D124
T1 sequence (A0A0A7EMW6 1-137): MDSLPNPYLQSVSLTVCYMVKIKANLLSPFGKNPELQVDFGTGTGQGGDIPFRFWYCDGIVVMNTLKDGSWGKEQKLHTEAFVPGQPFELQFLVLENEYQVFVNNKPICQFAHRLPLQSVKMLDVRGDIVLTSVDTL

[2] = molecular target: galectin-11 (LGALS-11) isoform 1 of sheep (Ovis aries) (sheep (Ovis aries))
[3] = molecular target: galectin-11 (LGALS-11) isoform 1 of sheep (Ovis aries) (sheep (Ovis aries)); assay: AUC; sedimentation velocity, c(s) analysis with SEDFIT; 0.10, 0.30 and 0.90 mg/ml; 20 mM Tris-HCl pH 8.0, 100 mM NaCl, 0.5 mM TCEP; 20 °C; absorbance at 280 nm
[4] = molecular target: galectin-11 (LGALS-11) isoform 2 of sheep (Ovis aries) (sheep (Ovis aries))
[5] = molecular target: galectin-11 (LGALS-11) isoform 2 of sheep (Ovis aries) (sheep (Ovis aries)); assay: AUC; sedimentation velocity, c(s) analysis with SEDFIT; 0.10, 0.30 and 0.90 mg/ml; 20 mM Tris-HCl pH 8.0, 100 mM NaCl, 0.5 mM TCEP; 20 °C; absorbance at 280 nm

Compound: OC[C@H]1O[C@@H](O)[C@H](O)[C@@H](O)[C@H]1O [β-D-galactose]
X-ray crystallography [1]: This galactose bound directly to the residues present in the four adjacent strands

xL3s of H. contortus that did not develop to L4s when exposed to isoform 1 (1.0 mg/ml) [2]: 85%
stoichiometry N [3]: 4
Compound: galectin-11 (LGALS-11) isoform 1 of sheep (Ovis aries) (natural protein)
L4s of H. contortus with cuticular damage, shrunken soma and internal granules after 72 h with isoform 1 [2]: > 95%

stoichiometry N [5]: 2
Compound: galectin-11 (LGALS-11) isoform 2 of sheep (Ovis aries) (natural protein)
L4s of H. contortus with internal or cuticular damage after 72 h with isoform 2 [4]: < 10%
